Measured values from the supplement of paper PMC6757056.
± gives the standard deviation of the averaged measurements.

B1: library; a variant is named by its letters at N, in order (parent)
chain: GCUGUCACCGGUGCUUGGUACGUUAUAUUCAGCCGGUCUGAUGAGUCUNNNNNNAGACGAAACAGC

Legend:
[1] = variants of: B1; test: FACS-Seq fitted mean relative fluorescence mCherry/BFP without ligand (log10 relative fluorescence); HEK293T overexpressing SLC46A1; higher = higher reporter protein expression; details: without (6R,S)-folinic acid; ligand present: no
How it was run: (§1)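 Lentivirally transduced HEK293T libraries carried an mCherry reporter with the ribozyme switch and an EF1α-BFP marker. Transduced cells were enriched, then incubated with or without ligand for 48 h and sorted into 6 bins by mCherry/BFP. Genomic DNA from each bin was PCR-amplified, barcoded and sequenced on MiSeq. Fluorescence was the fitted normal mean of log10(mCherry/BFP) bin counts, scaled to five spiked-in control ribozymes.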

[2] = variants of: B1; test: normalized RNA/DNA level without ligand (relative to sTRSVctl = 100) (log10 (% of sTRSVctl)); HEK293T overexpressing SLC46A1; higher = less ribozyme self-cleavage, higher mRNA level; details: without (6R,S)-folinic acid; ligand present: no
Protocol: (§2)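 Hammerhead (sTRSV) ribozyme switch libraries with a ligand aptamer grafted on stem I and a randomized N4-6 loop II, cloned into the 3' UTR of mCherry and transiently transfected into HEK293T cells; RNA-Seq 72 h post transfection with ligand added 1 h before transfection; RNA read count / plasmid DNA read count normalized to the non-cleaving sTRSVctl (x100), log10; sequences with >100 DNA reads. FACS-Seq: lentiviral library sorted into 6 bins after 48 h ligand, log-normal fit mean of mCherry/BFP scaled to controls. Printed sequences are partial switch sequences.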

[3] = variants of: B1; test: FACS-Seq fitted mean relative fluorescence mCherry/BFP with ligand (log10 relative fluorescence); HEK293T overexpressing SLC46A1; ligand concentration (+) FACS-Seq: 6 mM; higher = higher reporter protein expression; details: with (6R,S)-folinic acid; ligand present: yes
How it was run: as §1

[4] = variants of: B1; test: normalized RNA/DNA level with ligand (relative to sTRSVctl = 100) (log10 (% of sTRSVctl)); HEK293T overexpressing SLC46A1; ligand concentration (+) RNA-Seq: 6 mM; higher = less ribozyme self-cleavage, higher mRNA level; details: with (6R,S)-folinic acid; ligand present: yes
Protocol: as §2

For GCUGUCACCGGUGCUUGGUACGUUAUAUUCAGCCGGUCUGAUGAGUCUGACAUAAGACGAAACAGC, the “FACS-Seq fitted mean (log10)” value [1] was 0.346 ± 0.14, the “normalized RNA/DNA level without ligand (log10)” value [2] was 1.984 ± 0.0071 and the “FACS-Seq fitted mean (log10)” value [3] was 0.3032 ± 0.002. The “normalized RNA/DNA level with ligand (log10)” value [4] was 2.01 ± 0.044.

In the case of GCUGUCACCGGUGCUUGGUACGUUAUAUUCAGCCGGUCUGAUGAGUCUUACAUAAGACGAAACAGC, the “FACS-Seq fitted mean (log10)” value [1] is reported as 0.329 ± 0.1, the “normalized RNA/DNA level without ligand (log10)” value [2] is reported as 1.959 ± 0.012 and the “FACS-Seq fitted mean (log10)” value [3] is reported as 0.058 ± 0.017. The “normalized RNA/DNA level with ligand (log10)” value [4] was 2.002 ± 0.0044.

In the case of GCUGUCACCGGUGCUUGGUACGUUAUAUUCAGCCGGUCUGAUGAGUCUAACAUAAGACGAAACAGC, the “FACS-Seq fitted mean (log10)” value [1] is reported as 0.204 ± 0.049, the “normalized RNA/DNA level without ligand (log10)” value [2] is reported as 1.975 ± 0.0044 and the “FACS-Seq fitted mean (log10)” value [3] is reported as 0.324 ± 0.15. The “normalized RNA/DNA level with ligand (log10)” value [4] was 1.99 ± 0.033.

GCUGUCACCGGUGCUUGGUACGUUAUAUUCAGCCGGUCUGAUGAGUCUAACAUCAGACGAAACAGC was tested, and the “FACS-Seq fitted mean (log10)” value [1] was -0.902 ± 0.27, the “normalized RNA/DNA level without ligand (log10)” value [2] was 2.061 ± 0.019 and the “FACS-Seq fitted mean (log10)” value [3] was -0.887 ± 0.24. The “normalized RNA/DNA level with ligand (log10)” value [4] was 2.06 ± 0.065.

In the case of GCUGUCACCGGUGCUUGGUACGUUAUAUUCAGCCGGUCUGAUGAGUCUUACAUGAGACGAAACAGC, the “FACS-Seq fitted mean (log10)” value [1] is reported as 0.195 ± 0.2, the “normalized RNA/DNA level without ligand (log10)” value [2] is reported as 1.76 ± 0.0019 and the “FACS-Seq fitted mean (log10)” value [3] is reported as 0.236 ± 0.015. For the same variant, the “normalized RNA/DNA level with ligand (log10)” value [4] was 1.97 ± 0.019.

With GCUGUCACCGGUGCUUGGUACGUUAUAUUCAGCCGGUCUGAUGAGUCUAACAUGAGACGAAACAGC the “FACS-Seq fitted mean (log10)” value [1] was 0.494 ± 0.1, the “normalized RNA/DNA level without ligand (log10)” value [2] was 1.96 ± 0.0024 and the “FACS-Seq fitted mean (log10)” value [3] was 0.6524 ± 0.0008. The “normalized RNA/DNA level with ligand (log10)” value [4] was 2.02 ± 0.022.

For GCUGUCACCGGUGCUUGGUACGUUAUAUUCAGCCGGUCUGAUGAGUCUGACAUUAGACGAAACAGC, the “FACS-Seq fitted mean (log10)” value [1] was 0.457 ± 0.096, the “normalized RNA/DNA level without ligand (log10)” value [2] was 2.024 ± 0.013 and the “FACS-Seq fitted mean (log10)” value [3] was 0.529 ± 0.11. For the same variant, the “normalized RNA/DNA level with ligand (log10)” value [4] was 2 ± 0.064.

With GCUGUCACCGGUGCUUGGUACGUUAUAUUCAGCCGGUCUGAUGAGUCUAACCAAAGACGAAACAGC the “FACS-Seq fitted mean (log10)” value [1] was 0.377 ± 0.016, the “normalized RNA/DNA level without ligand (log10)” value [2] was 1.989 ± 0.0067 and the “FACS-Seq fitted mean (log10)” value [3] was 0.433 ± 0.11. The “normalized RNA/DNA level with ligand (log10)” value [4] was 2 ± 0.028.

GCUGUCACCGGUGCUUGGUACGUUAUAUUCAGCCGGUCUGAUGAGUCUGACCAAAGACGAAACAGC was tested, and the “FACS-Seq fitted mean (log10)” value [1] was 0.358 ± 0.039, the “normalized RNA/DNA level without ligand (log10)” value [2] was 2.0328 ± 0.00084 and the “FACS-Seq fitted mean (log10)” value [3] was 0.42 ± 0.074. For the same variant, the “normalized RNA/DNA level with ligand (log10)” value [4] was 2.03 ± 0.043.

For GCUGUCACCGGUGCUUGGUACGUUAUAUUCAGCCGGUCUGAUGAGUCUUACCACAGACGAAACAGC, the “FACS-Seq fitted mean (log10)” value [1] was 0.907 ± 0.028, the “normalized RNA/DNA level without ligand (log10)” value [2] was 1.971 ± 0.0041 and the “FACS-Seq fitted mean (log10)” value [3] was 0.651 ± 0.047. For the same variant, the “normalized RNA/DNA level with ligand (log10)” value [4] was 1.994 ± 0.012.

For GCUGUCACCGGUGCUUGGUACGUUAUAUUCAGCCGGUCUGAUGAGUCUAACCAGAGACGAAACAGC, the “FACS-Seq fitted mean (log10)” value [1] was 0.421 ± 0.13, the “normalized RNA/DNA level without ligand (log10)” value [2] was 1.966 ± 0.015 and the “FACS-Seq fitted mean (log10)” value [3] was 0.407 ± 0.2. For the same variant, the “normalized RNA/DNA level with ligand (log10)” value [4] was 2.0092 ± 0.00083.

GCUGUCACCGGUGCUUGGUACGUUAUAUUCAGCCGGUCUGAUGAGUCUAACCAUAGACGAAACAGC was tested, and the “FACS-Seq fitted mean (log10)” value [1] was 0.386 ± 0.012, the “normalized RNA/DNA level without ligand (log10)” value [2] was 1.976 ± 0.014 and the “FACS-Seq fitted mean (log10)” value [3] was 0.303 ± 0.018. The “normalized RNA/DNA level with ligand (log10)” value [4] was 2 ± 0.057.

For GCUGUCACCGGUGCUUGGUACGUUAUAUUCAGCCGGUCUGAUGAGUCUCACCAUAGACGAAACAGC, the “FACS-Seq fitted mean (log10)” value [1] was 0.138 ± 0.12, the “normalized RNA/DNA level without ligand (log10)” value [2] was 1.9842 ± 0.00094 and the “FACS-Seq fitted mean (log10)” value [3] was 0.347 ± 0.13. The “normalized RNA/DNA level with ligand (log10)” value [4] was 2 ± 0.011.

For GCUGUCACCGGUGCUUGGUACGUUAUAUUCAGCCGGUCUGAUGAGUCUAACCCCAGACGAAACAGC, the “FACS-Seq fitted mean (log10)” value [1] was 0.581 ± 0.12, the “normalized RNA/DNA level without ligand (log10)” value [2] was 2.013 ± 0.0022 and the “FACS-Seq fitted mean (log10)” value [3] was 0.492 ± 0.041. The “normalized RNA/DNA level with ligand (log10)” value [4] was 1.99 ± 0.045.

GCUGUCACCGGUGCUUGGUACGUUAUAUUCAGCCGGUCUGAUGAGUCUUACCCGAGACGAAACAGC was tested, and the “FACS-Seq fitted mean (log10)” value [1] was 0.166 ± 0.063, the “normalized RNA/DNA level without ligand (log10)” value [2] was 1.92 ± 0.03 and the “FACS-Seq fitted mean (log10)” value [3] was 0.279 ± 0.24. For the same variant, the “normalized RNA/DNA level with ligand (log10)” value [4] was 1.977 ± 0.0043.

With GCUGUCACCGGUGCUUGGUACGUUAUAUUCAGCCGGUCUGAUGAGUCUGACCCUAGACGAAACAGC the “FACS-Seq fitted mean (log10)” value [1] was 0.102 ± 0.065, the “normalized RNA/DNA level without ligand (log10)” value [2] was 2.065 ± 0.0032 and the “FACS-Seq fitted mean (log10)” value [3] was -0.257 ± 0.21. For the same variant, the “normalized RNA/DNA level with ligand (log10)” value [4] was 2.04 ± 0.035.

For GCUGUCACCGGUGCUUGGUACGUUAUAUUCAGCCGGUCUGAUGAGUCUUACCGAAGACGAAACAGC, the “FACS-Seq fitted mean (log10)” value [1] was 0.3629 ± 0.0013, the “normalized RNA/DNA level without ligand (log10)” value [2] was 1.9669 ± 0.00083 and the “FACS-Seq fitted mean (log10)” value [3] was 0.4406 ± 0.0022. The “normalized RNA/DNA level with ligand (log10)” value [4] was 2.04 ± 0.048.

For GCUGUCACCGGUGCUUGGUACGUUAUAUUCAGCCGGUCUGAUGAGUCUUACCGCAGACGAAACAGC, the “FACS-Seq fitted mean (log10)” value [1] was 0.235 ± 0.05, the “normalized RNA/DNA level without ligand (log10)” value [2] was 1.988 ± 0.017 and the “FACS-Seq fitted mean (log10)” value [3] was 0.503 ± 0.22. For the same variant, the “normalized RNA/DNA level with ligand (log10)” value [4] was 1.99 ± 0.066.

With GCUGUCACCGGUGCUUGGUACGUUAUAUUCAGCCGGUCUGAUGAGUCUAACCGGAGACGAAACAGC the “FACS-Seq fitted mean (log10)” value [1] was 0.00166 ± 0.089, the “normalized RNA/DNA level without ligand (log10)” value [2] was 2.032 ± 0.0087 and the “FACS-Seq fitted mean (log10)” value [3] was -0.0748 ± 0.11. The “normalized RNA/DNA level with ligand (log10)” value [4] was 2.04 ± 0.033.

For GCUGUCACCGGUGCUUGGUACGUUAUAUUCAGCCGGUCUGAUGAGUCUUACCGGAGACGAAACAGC, the “FACS-Seq fitted mean (log10)” value [1] was 0.355 ± 0.059, the “normalized RNA/DNA level without ligand (log10)” value [2] was 1.982 ± 0.019 and the “FACS-Seq fitted mean (log10)” value [3] was 0.676 ± 0.1. For the same variant, the “normalized RNA/DNA level with ligand (log10)” value [4] was 2.004 ± 0.0069.

With GCUGUCACCGGUGCUUGGUACGUUAUAUUCAGCCGGUCUGAUGAGUCUUACCGUAGACGAAACAGC the “FACS-Seq fitted mean (log10)” value [1] was 0.352 ± 0.017, the “normalized RNA/DNA level without ligand (log10)” value [2] was 1.989 ± 0.0026 and the “FACS-Seq fitted mean (log10)” value [3] was 0.431 ± 0.11. The “normalized RNA/DNA level with ligand (log10)” value [4] was 2.02 ± 0.048.
